{"source": "paper doi:10.1101/2021.10.22.465432", "about": "(bioRxiv, 2021)", "binders": {"B1": {"name": "Safb1-ΔRE-HA (natural protein)", "chain": "MAETLSGLGDASAAGAAAVSSAASETGTRRLSDLRVIDLRAELKKRNLDSSGNKSVLMERLKKAIEDEGGNPDEIEVTSECNKKMPKRPSKGRKPEDEGVEDNGLEENSGDGQEDVETSLENLQDMDMMDISVLDEADIDNGSVADCVEEEEEATLPEGLADSTELVEGDLKGLPEQLQEHAIDDKDTVNNVDTSSSDFTMLQEMEEASLEPENEKILDILGETCKSEPVKEEGSELEQPFAQATSSVGPDRKLAEEEDLFESCGHPEEEEEEEEEDQEEEQEEEGDLALASSSKSESPSTRCQWSEADAPLAVVKREPADAPGGGTGMDREPVGLEEPVEQSSTAAQLPEATSQELVRAPTAALSPEPQDSKEDVKKFAFDACNDVPAPPKESSASEGADQKMSSVEEDSDTKRLSREEKGRSSCGRNFWVSGLSSTTRATDLKNLFSRYGKVVGAKVVTNARSPGARCYGFVTMSTAEEATKCISHLHKTELHGKMISVEKAKSEPTGKRVPDRRDGDSKKEKASTSDRSANLKREEKGERKDDAKKTDHREREELRRQQELRYEQERRPAVRRPYEVDGRRDDAYWPEAKRAALDDRYHSDFSRQDRFHDFDHRDRGRYPNHSVDRREGSRSMMGDREGQHYPERHGGPERHGRDSRDGWGYGSNKRLSEGRGLPPPPRRDWGEHGRRLEDDRAWQGTADGGMMERDHKRWQGGERSMSGHSGPGHMMNRGGMSGRGSFAPGGASRGHVIPRGGMQAGFGGQSRGSRPSDARFTRRY"}}, "biological_target": "T1, Drosha (mouse (endogenous in N2A), UniProt Q5HZJ0 1-1373)", "T1 sequence": "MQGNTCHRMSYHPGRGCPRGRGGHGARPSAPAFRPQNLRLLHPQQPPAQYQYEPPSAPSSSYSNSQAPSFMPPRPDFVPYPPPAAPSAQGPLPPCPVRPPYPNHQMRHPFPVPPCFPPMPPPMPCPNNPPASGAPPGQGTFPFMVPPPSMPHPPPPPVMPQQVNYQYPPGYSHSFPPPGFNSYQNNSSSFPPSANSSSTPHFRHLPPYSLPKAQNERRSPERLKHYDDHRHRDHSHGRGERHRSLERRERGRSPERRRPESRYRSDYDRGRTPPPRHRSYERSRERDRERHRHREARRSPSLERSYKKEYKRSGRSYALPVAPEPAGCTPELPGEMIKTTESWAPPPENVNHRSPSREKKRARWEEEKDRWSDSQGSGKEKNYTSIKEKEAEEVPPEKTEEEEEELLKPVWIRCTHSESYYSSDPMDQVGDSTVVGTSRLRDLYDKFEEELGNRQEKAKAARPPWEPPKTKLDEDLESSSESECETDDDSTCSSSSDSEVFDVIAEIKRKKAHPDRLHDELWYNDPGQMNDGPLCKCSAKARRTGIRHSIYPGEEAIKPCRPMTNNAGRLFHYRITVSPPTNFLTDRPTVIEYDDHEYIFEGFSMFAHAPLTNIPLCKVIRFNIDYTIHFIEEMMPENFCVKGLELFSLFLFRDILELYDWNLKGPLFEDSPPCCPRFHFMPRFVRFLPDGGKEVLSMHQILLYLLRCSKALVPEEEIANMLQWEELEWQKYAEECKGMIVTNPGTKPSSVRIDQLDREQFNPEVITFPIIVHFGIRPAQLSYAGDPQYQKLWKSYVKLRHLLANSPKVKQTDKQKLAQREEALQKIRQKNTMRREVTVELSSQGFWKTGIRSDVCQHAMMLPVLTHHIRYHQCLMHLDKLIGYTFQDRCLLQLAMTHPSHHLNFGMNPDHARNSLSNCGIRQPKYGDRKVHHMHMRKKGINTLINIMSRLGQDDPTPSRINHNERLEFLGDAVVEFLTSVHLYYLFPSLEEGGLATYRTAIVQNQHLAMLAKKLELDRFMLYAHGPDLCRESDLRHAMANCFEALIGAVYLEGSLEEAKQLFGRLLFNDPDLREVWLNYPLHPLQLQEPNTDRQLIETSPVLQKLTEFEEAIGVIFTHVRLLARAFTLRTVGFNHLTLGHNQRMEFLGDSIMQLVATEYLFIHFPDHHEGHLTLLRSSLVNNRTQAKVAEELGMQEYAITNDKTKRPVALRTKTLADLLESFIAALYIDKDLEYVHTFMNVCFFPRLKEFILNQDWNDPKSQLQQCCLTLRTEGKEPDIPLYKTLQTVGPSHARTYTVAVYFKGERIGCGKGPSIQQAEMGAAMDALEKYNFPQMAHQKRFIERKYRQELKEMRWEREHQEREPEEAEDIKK", "assay": "co-IP"}
{"binder": "B1", "values": [{"measurement": "fold reduction in binding against Safb1 wild type", "value": 5.7, "unit": "fold"}]}
